Reference: patent publication US20090325883A1 (LES LABORATOIRES SERVIER, published 2009)

target: T1, Bcl-XL (UniProt Q07817 1-209); test: fluorescence polarisation competition; 15 nM Bak BH3 carboxyfluorescein, 100 nM Bcl-XL
T1 construct: also called anti-apoptotic member Bcl-XL
T1 sequence (Q07817 1-209): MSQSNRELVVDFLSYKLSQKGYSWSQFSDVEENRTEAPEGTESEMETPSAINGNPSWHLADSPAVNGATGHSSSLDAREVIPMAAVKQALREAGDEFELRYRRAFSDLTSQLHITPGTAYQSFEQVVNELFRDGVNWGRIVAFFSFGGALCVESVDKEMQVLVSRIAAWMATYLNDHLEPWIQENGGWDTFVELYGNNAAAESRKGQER

| Binder | Ki [µM] |
| --- | --- |
| MATVIHNPLKALGDQFYKEAIEHC (also called peptide a)) [Cerd4 peptide] | 9 |
| VMTQEVGQLLQDMGDDVYQQYRSL (also called peptide b)) [Kiaa 1578 peptide] | 32 |
| RLKHSCLLALKRAADLLGQRSSST (also called peptide c)) [Genematch peptide] | 1 |
| DMWDTRIAKLRVSADSFVRQQEA (also called peptide d)) [Loc 51569 peptide] | 8 |
| VATRRLSGFLRTLADRLEGTKELL (also called peptide e)) [Mina53 peptide] | 20 |
